# Test results taken from publication PMC5125647, “Multivalent Interactions of Human Primary Amine Oxidase with the V and C2_(2) Domains of Sialic Acid-Binding Immunoglobulin-Like Lectin-9 Regulate Its Binding and Amine Oxidase Activity” (PLoS ONE, 2016).
# Positions count from the first letter of the chain named. In names and notes the source's numbering stands.
# B1: Siglec-9-EC (extracellular region of sialic acid-binding immunoglobulin-like lectin-9, V-C2_(12); residues 26-348) (domain or fragment, UniProt Q9Y336 26-348, looked up)
# chain: QSSVTVQEGLCVHVPCSFSYPSHGWIYPGPVVHGYWFREGANTDQDAPVATNNPARAVWEETRDRFHLLGDPHTKNCTLSIRDARRSDAGRYFFRMEKGSIKWNYKHHRLSVNVTALTHRPNILIPGTLESGCPQNLTCSVPWACEQGTPPMISWIGTSVSPLDPSTTRSSVLTLIPQPQDHGTSLTCQVTFPGASVTTNKTVHLNVSYPPQNLTMTVFQGDGTVSTVLGNGSSLSLPEGQSLRLVCAVDAVDSNPPARLSLSWRGLTLCPSQPSNPGVLELPWVHLRDAAEFTCRAQNPLGSQQVYLNVSLQSKATSGVTQG
# notes: Siglec-9, UniProtKB Q9Y336, extracellular region with the V, C2_(1) and C2_(2) domains, residues 26-348; The construct has a secretion signal for insect cell production before the tags; The His tag is called cleavable, but no cleavage is described; Dimer by SEC retention (85 kDa); Insect-cell glycosylation; eight putative N-glycosylation sites; Cloning details are in S1 Text; also called WT; …
# B2: Siglec-9-EC/R290S (domain or fragment, UniProt Q9Y336 26-348, looked up)
# chain: B1 chain with R265S
# notes: Siglec-9, UniProtKB Q9Y336, extracellular region, residues 26-348, with R290S in the C2_(2) domain; Made from the Siglec-9-EC production vector by site-directed mutagenesis; also called R290S mutant; source: baculovirus, Tn5 (High Five) insect cells, secreted into the medium, purified (Ni2+ resin, Superdex 200 gel filtration)
# B3: Siglec-9-EC/R284S (domain or fragment, UniProt Q9Y336 26-348, looked up)
# chain: B1 chain with R259S
# notes: Siglec-9, UniProtKB Q9Y336, extracellular region, residues 26-348, with R284S in the C2_(2) domain; Made from the Siglec-9-EC production vector by site-directed mutagenesis; also called R284S mutant; source: baculovirus, Tn5 (High Five) insect cells, secreted into the medium, purified (Ni2+ resin, Superdex 200 gel filtration)
# B4: Siglec-9-ΔV (C2_(12); residues 145-348) (domain or fragment, UniProt Q9Y336 145-348, looked up)
# chain: RPNILIPGTLESGCPQNLTCSVPWACEQGTPPMISWIGTSVSPLDPSTTRSSVLTLIPQPQDHGTSLTCQVTFPGASVTTNKTVHLNVSYPPQNLTMTVFQGDGTVSTVLGNGSSLSLPEGQSLRLVCAVDAVDSNPPARLSLSWRGLTLCPSQPSNPGVLELPWVHLRDAAEFTCRAQNPLGSQQVYLNVSLQSKATSGVTQG
# notes: Siglec-9, UniProtKB Q9Y336, C2_(1) and C2_(2) domains without the V domain, residues 145-348; The construct has a secretion signal for insect cell production before the tags; also called Siglec-9-EC-ΔV; source: baculovirus, Tn5 (High Five) insect cells, secreted into the medium, purified (Ni2+ resin, Superdex 200 gel filtration)
# How the values were obtained:
# [1] = biological target: T1, human primary amine oxidase (hAOC3) (human, UniProt Q16853 1-763, topaquinone (TPQ) cofactor, modified from Tyr471; N-glycans attached to N137, N232, N294, N592, N618 and N666, with sialic acids); assay: SPR; BiacoreX; hAOC3 amine-coupled to a CM5 chip (10 000 RU); 20 ul of 0.3-31 uM Siglec-9-EC injected at 25 C; running buffer HBS (10 mM HEPES, 150 mM NaCl, pH 7.4) with 0.005% Surfactant-P20; apparent Kd from responses at the end of injection against concentration, steady state and one-to-one model assumed, non-linear regression (GraphPad); two protein preparations; settings: both partners purified
# T1 construct: human primary amine oxidase (AOC3, VAP-1); In the functional assays hAOC3 stood on live CHO-hAOC3 cells or in CHO-hAOC3 lysate; also called vascular adhesion protein-1; VAP-1
# T1 sequence: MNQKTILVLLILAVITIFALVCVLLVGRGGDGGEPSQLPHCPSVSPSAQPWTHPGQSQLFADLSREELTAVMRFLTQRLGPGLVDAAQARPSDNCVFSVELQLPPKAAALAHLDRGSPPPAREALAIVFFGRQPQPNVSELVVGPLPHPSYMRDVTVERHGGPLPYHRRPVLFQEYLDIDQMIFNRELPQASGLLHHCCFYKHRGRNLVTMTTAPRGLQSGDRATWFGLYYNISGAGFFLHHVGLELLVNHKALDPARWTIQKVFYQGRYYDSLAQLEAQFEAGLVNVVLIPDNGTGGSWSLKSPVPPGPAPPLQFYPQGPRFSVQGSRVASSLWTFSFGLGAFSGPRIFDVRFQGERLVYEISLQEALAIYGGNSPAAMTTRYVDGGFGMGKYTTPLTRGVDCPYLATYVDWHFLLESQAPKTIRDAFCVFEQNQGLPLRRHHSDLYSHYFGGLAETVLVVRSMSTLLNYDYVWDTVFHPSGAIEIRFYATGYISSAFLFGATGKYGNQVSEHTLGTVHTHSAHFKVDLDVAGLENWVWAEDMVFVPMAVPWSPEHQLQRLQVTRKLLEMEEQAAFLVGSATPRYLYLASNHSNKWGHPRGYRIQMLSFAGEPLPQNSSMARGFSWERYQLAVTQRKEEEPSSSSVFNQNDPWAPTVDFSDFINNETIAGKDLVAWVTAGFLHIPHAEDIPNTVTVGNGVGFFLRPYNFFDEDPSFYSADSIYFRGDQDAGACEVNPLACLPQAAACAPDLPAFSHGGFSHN
# [2] = biological target: T1, human primary amine oxidase (hAOC3); assay: cell-based or functional assay
# [3] = biological target: T1, human primary amine oxidase (hAOC3); assay: SPR; hAOC3 immobilised; five to seven concentrations of Siglec-9-EC, R284S or R290S; kon and koff determined separately for every curve with Biaeval, Kd as their ratio; average without the highest and lowest value; settings: both partners purified
# [4] = biological target: the molecule itself; assay: SEC; Superdex 200 10/300 GL, 20 mM HEPES pH 7.4, 150 mM NaCl; size from the retention time against standard proteins
# [5] = biological target: T1, human primary amine oxidase (hAOC3); assay: SPR; hAOC3 immobilised; five to seven concentrations of Siglec-9-EC, R284S or R290S; kon and koff determined separately for every curve with Biaeval, Kd as their ratio; average without the highest and lowest value; settings: both partners purified; remark: listed apart in the source
# [6] = biological target: T1, human primary amine oxidase (hAOC3); assay: SPR; hAOC3 immobilised; one concentration (0.5 uM) of each Siglec-9 protein; relative binding normalised to the first control condition; settings: both partners purified
Binder,Kd [1] [µM],amine oxidase activity of intact CHO-hAOC3 cells on [7-14C]benzylamine with 5 uM Siglec-9-EC added before the substrate (a similar increase with 1 uM in Fig 7C) [2] [fold],maximal binding at the highest concentration [3] [RU],stoichiometry N [4],Kd [5] [nM],koff [5] [s⁻¹],kon [5] [M⁻¹ s⁻¹],binding relative to WT [6] [%]
B1,4.6 ± 0.93,2,3120,2,1040 ± 870,0.00691,11200,
B2,,,1760,,530 ± 500,0.0031,11000,
B3,,,1130,,140,0.00373,32100,
B4,,,,,,,,< 10
